One block for each binder: values may come before it.
Assays:
His6-RIT1 = His6-RIT1 (human, UniProt Q92963 1-219); assay: pull-down
[1] = molecular target: FLAG-RIT1 protein (full-length recombinant RIT1) (human, UniProt Q92963 1-219); assay: pull-down
[2] = molecular target: MAD2 WT (recombinant, TEV-cleaved) (human, UniProt Q13257 1-205); assay: SEC
His6-MAD2 = His6-MAD2 (human, UniProt Q13257 1-205); assay: pull-down

Sequence of His6-RIT1 (Q92963 whole entry): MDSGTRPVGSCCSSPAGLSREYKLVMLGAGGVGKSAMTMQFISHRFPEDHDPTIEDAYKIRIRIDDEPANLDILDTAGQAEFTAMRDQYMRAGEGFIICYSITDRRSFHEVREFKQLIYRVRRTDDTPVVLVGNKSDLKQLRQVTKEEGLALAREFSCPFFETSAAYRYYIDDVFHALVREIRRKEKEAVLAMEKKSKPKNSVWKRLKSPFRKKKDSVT
Sequence of FLAG-RIT1 protein (full-length recombinant RIT1) (Q92963 whole entry): as above

binding result (His6-RIT1): binds
B1: GST-RGL3 RBD (604-703) (domain or fragment, UniProt Q3MIN7 604-703, looked up)
chain: IPLPAQQSSEARVIRVSIDNDHGNLYRSILLTSQDKAPSVVRRALQKHNVPQPWACDYQLFQVLPGDRVLLIPDNANVFYAMSPVAPRDFMLRRKEGTRN

binding result [1]: binds
B2: GST-MAD2 Loop-less (LL) (natural protein, human)
chain: MALQLSREQGITLRGSAEIVAEFFSFGINSILYQRGIYPSETFTRVQKYGLTLLVTTDLELIKYLNNVVEQLKDWLYKCSVQKLVVVISNIESGEVLERWQFDIECDKGSGEKSQKAIQDEIRSVIRQITATVTFLPLLEVSCSFDLLIYTDKDLVVPEKWEESGPQFITNSEEVRLRSFTTTIHKVNSMVAYKIPVND

binding result [2]: binds
B3: RIT1 (202-216) peptide (peptide, UniProt Q92963 202-216, looked up)
peptide: SVWKRLKSPFRKKKD

binding result (His6-MAD2): binds
B4: GST-CDC20 111-138 (domain or fragment, UniProt Q12834 111-138, looked up)
chain: EHQKAWALNLNGFDVEEAKILRLSGKPQ

Source: publication PMC8440430 (Current biology : CB, 2021)
